Experimental data taken from publication PMC10147923, “Pain-causing stinging nettle toxins target TMEM233 to modulate NaV1.7 function” (Nature Communications, 2023).
Where “and” joins values, the source holds several entries; their conditions need not be identical. Identical values can stand only once.

B1: TMEM233 35-109 (protein, UniProt B4DJY2 35-109, looked up, fragment)
chain: KNYLWLTIVSCFCPAYPINIVALVFSIMSLNSYNDGDYEGARRLGRNAKWVAIASIIIGLLIIGISCAVHFTRNA
B2: HA-TMEM233 (protein, UniProt B4DJY2 1-109, looked up)
Transmembrane protein 233: MSQYAPSPDFKRALDSSPEANTEDDKTEEDVPMPKNYLWLTIVSCFCPAYPINIVALVFSIMSLNSYNDGDYEGARRLGRNAKWVAIASIIIGLLIIGISCAVHFTRNA
modifications: HA tag

Legend:
NaV1.7 = NaV1.7 (Homo sapiens, UniProt Q15858); format: cell-based
Chain of NaV1.7 (Q15858 whole entry): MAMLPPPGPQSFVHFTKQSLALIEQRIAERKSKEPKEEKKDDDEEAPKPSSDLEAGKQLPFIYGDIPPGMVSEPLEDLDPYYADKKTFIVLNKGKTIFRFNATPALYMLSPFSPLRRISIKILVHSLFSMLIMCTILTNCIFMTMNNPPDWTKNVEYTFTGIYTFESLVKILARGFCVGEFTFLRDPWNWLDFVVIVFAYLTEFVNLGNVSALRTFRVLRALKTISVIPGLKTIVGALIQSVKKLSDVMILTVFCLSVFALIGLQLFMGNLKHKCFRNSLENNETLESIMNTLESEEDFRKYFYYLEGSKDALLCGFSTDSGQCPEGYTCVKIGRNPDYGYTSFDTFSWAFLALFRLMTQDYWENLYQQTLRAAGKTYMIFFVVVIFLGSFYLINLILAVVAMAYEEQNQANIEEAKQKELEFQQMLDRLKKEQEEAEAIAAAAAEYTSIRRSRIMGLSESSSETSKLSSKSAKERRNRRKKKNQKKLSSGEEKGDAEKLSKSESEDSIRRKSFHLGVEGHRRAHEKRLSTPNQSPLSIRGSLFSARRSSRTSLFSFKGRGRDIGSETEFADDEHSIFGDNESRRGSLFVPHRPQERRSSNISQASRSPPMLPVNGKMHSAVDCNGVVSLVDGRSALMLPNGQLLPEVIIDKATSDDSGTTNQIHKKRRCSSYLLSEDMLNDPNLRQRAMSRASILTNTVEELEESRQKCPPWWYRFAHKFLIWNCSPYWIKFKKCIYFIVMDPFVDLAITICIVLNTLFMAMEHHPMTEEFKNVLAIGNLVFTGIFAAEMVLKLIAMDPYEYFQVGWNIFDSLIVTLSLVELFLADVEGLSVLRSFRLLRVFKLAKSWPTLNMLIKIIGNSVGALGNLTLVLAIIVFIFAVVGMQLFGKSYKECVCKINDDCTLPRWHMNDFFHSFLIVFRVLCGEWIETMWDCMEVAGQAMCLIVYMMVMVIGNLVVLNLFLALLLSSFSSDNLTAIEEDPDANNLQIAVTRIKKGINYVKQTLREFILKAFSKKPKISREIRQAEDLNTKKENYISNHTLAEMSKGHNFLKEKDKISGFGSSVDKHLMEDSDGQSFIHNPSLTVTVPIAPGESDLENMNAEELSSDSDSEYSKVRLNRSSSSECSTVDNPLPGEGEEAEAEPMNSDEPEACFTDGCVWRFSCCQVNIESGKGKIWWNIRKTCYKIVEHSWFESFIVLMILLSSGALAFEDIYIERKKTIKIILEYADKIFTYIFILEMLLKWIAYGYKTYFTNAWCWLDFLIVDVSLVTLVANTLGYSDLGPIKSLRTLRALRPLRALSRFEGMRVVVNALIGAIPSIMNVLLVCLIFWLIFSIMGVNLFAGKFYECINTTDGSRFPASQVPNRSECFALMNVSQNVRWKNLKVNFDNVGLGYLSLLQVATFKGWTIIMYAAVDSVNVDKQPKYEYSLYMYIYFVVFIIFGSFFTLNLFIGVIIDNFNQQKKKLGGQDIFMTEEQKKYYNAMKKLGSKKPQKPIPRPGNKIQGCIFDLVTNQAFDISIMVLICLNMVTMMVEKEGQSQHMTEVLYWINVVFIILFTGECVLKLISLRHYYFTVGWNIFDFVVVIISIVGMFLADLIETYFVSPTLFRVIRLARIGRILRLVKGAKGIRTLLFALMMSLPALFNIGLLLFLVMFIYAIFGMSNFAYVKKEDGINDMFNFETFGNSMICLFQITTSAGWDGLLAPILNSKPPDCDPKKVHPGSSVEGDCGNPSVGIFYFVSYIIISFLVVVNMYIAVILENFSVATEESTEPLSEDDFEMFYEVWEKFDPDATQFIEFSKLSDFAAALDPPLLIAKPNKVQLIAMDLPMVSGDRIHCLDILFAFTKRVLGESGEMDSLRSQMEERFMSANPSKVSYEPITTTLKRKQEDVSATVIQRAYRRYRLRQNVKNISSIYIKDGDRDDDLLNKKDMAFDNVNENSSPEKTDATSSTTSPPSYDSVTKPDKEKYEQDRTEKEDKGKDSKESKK
Chain of NaV1.7 (Q07699 19-218, further chain): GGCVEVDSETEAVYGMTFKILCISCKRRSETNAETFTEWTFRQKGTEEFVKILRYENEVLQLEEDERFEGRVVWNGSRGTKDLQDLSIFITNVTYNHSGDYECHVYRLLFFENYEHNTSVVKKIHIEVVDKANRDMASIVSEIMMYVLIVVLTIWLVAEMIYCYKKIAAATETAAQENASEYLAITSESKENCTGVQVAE
Protocol: To determine recovery from fast inactivation, a 20 ms pulse to 0 mV from a holding potential of −90 mV was used to induce fast inactivation. A subsequent recovery period, ranging from 1 ms to 2216 ms in 50% increments at −90 mV, was followed by a last 20 ms test pulses to 0 mV to determine the time-dependence of recovery from fast inactivation. The proportion of available channels was determined by normalizing peak currents from the last to the first pulse. A two-phase exponential equation was fit to the normalized current, plotted as a function of time, to determine the time constants τ1 and τ2 of recovery from fast inactivation.

NaV1.7/TMEM233 = NaV1.7/TMEM233 (Homo sapiens, UniProt B4DJY2+Q15858); assay: Proximity ligation assay NaV1.7 and TMEM233; settings: Fig 5e
Chain of NaV1.7/TMEM233 (Q07699 19-218, one chain of several, further chain): as the sequence (Q07699 19-218, further chain) above
Chain of NaV1.7/TMEM233 (Q15858 whole entry, one chain of several): as the sequence (Q15858 whole entry) above
Protocol: HEK293 cells stably expressing β1/β2 were transiently transfected in T25 flasks using Lipofectamine 2000 with plasmids encoding GFP (0.35 μg) as a transfection control, as well as N-terminal HA-tagged TMEM233 (0.35 μg) and N-terminal FLAG- tagged NaV1.7 (1.0 μg) alone or in combination. The total amount of plasmid DNA/T25 flask was kept constant at 1.7 μg flask using empty pcDNA3.1 plasmid as required. After 24 h incubation at 37 °C, cells were plated on PDL-coated glass coverslips and cultured for a further 24 h. Cells were washed once using sterile phosphate-buffered saline, fixed with 4% formaldehyde for 5 min, permeabilized with 0.1% Triton-X 100 in PSS, blocked using proximity ligation bocking buffer (Sigma DUO82007) and incubated for 1 h with anti-FLAG (1:1000; Sigma F1804) and anti-HA (1:1000; Sigma H6908) antibodies in Duolink antibody diluent. Permeabilized cells were then washed twice with wash buffer A at room temperature for 5 min. Anti-mouse PLUS (Sigma DUO92001) and anti-rabbit MINUS (Sigma DUO92005) probes were diluted 1:5 in Duolink antibody diluent and incubated with cells for 1 h at 37 °C. Cells were then washed with wash buffer A at room temperature for 5 min twice and incubated with ligase diluted 1:40 in ligation buffer. After incubation at 37 °C for 30 mins, cells were washed twice with wash buffer A. Polymerase was diluted 1:80 in amplification buffer and incubated with cells for 100 mins at 37 °C. Cells were subsequently washed with wash buffer B twice for 10 mins and mounted with Duolink In Situ mounting media with DAPI. Cells were imaged on a Zeiss AxioImage M2 with Apotome2 and Axiocam 506 camera. Proximity ligation assay signal (PLA particles) in GFP-positive cells were quantified using ImageJ in collapsed stacks from 3–6 random images obtained per coverslip (Image>Type>8-bit; Image>Adjust>Threshold; Image>Analyze>Analyze Particles). Particles size was set to 0.0003–∞ and circularity to 0.00–1.00. The average number of particles/GFP-positive cells from three independent experiments was analyzed by One-way ANOVA.

| Molecule | Tau Fast, individual values (NaV1.7) | Tau Fast, mean (NaV1.7) | Tau Fast, mean diff. NaV1.7/β1/TMEM233 35-109 vs. NaV1.7/β1 (NaV1.7) | particles/cell, mean (NaV1.7/TMEM233; mean of n = 3) | particles/cell (NaV1.7/TMEM233; replicate 1) | particles/cell (NaV1.7/TMEM233; replicate 2) | particles/cell (NaV1.7/TMEM233; replicate 3) |
| --- | --- | --- | --- | --- | --- | --- | --- |
| B1 | 8.336 and 5.75 and 6.866 and 4.165 and 7.033 and 6.03 and 5.901 | 6.297 | 0.2467 |  |  |  |  |
| B2 |  |  |  | 7.485 particles/cell | 4.895 particles/cell | 6.562 particles/cell | 11 particles/cell |
